Three variants from IntAct's records for PubMed 17064696 can be followed below.

The labels stand for the following.
B1: Sphingosine kinase 1 (Homo sapiens), Q9NYA1 (parent)
chain: MDPAGGPRGVLPRPCRVLVLLNPRGGKGKALQLFRSHVQPLLAEAEISFTLMLTERRNHARELVRSEELGRWDALVVMSGDGLMHEVVNGLMERPDWETAIQKPLCSLPAGSGNALAASLNHYAGYEQVTNEDLLTNCTLLLCRRLLSPMNLLSLHTASGLRLFSVLSLAWGFIADVDLESEKYRRLGEMRFTLGTFLRLAALRTYRGRLAYLPVGRVGSKTPASPVVVQQGPVDAHLVPLEEPVPSHWTVVPDEDFVLVLALLHSHLGSEMFAAPMGRCAAGVMHLFYVRAGVSRAMLLRLFLAMEKGRHMEYECPYLVYVPVVAFRLEPKDGKGVFAVDGELMVSEAVQGQVHPNYFWMVSGCVEPPPSWKPQQMPPPEEPL

Variants of B1 are the subject of the first assay. The conditions noted are these: with catb_human CTSB.
Turning to N121E, the “effect of a mutation on the interaction” value is given as “decreasing interaction”.

The variants in another assay derive from B1. To be noted: with catb_human CTSB. The source holds these as a separate data set.
Consider Y123A, for which the “effect of a mutation on the interaction” value is “decreasing interaction”.

The variants in a further assay derive from B1. The conditions noted are these: with catb_human CTSB. The source holds these as a separate data set.
In the case of H122Y, the “effect of a mutation on the interaction” value was “decreasing interaction”.
